Measured values reported in US20230192896A1 (published 2023).

Molecular target: free FIXa (activated Factor IX) (UniProt P00740 47-191; P00740 227-461)
Test: BLI

| Binder | Kd [nM] |
| --- | --- |
| BIIB-9-1281 (antibody, V domains shown) VH: QVQLQQWGAGLLKPSETLSLTCAVYGGSFSGYYWSWIRQPPGKGLEWIGEIDHSGSTNYNPSLKSRVTISVDTSKNQFSLKLSSVTAADTAVYYCARTTRSKYYGMDVWGQGTMVTVSS VL: DIQMTQSPSTLSASVGDRVTITCRASQSISSWLAWYQQKPGKAPKLLIYKASSLESGVPSRFSGSGSGTDFTLTISSLQPEDFATYYCQQAISLPITFGGGTKVEIK | 16.8 |
| BIIB-9-461 (antibody, V domains shown) VH: QVQLVQSGAEVKKPGASVKVSCKASGYTFTSYYMHWVRQAPGQGLEWMGIINPSGGSTSYAQKFQGRVTMTRDTSTSTVYMELSSLRSEDTAVYYCARGPTDSSGYLDMDVWGKGTTVTVSS VL: EIVMTQSPATLSVSPGERATLSCRASQSVSSSLAWYQQKPGQAPRLLIYGASTRATGIPARFSGSGSGTEFTLTISSLQSEDFAVYYCQQHHHWPPTFGGGTKVEIK | 43.1 |
| BIIB-9-445 (antibody, V domains shown) VH: QVQLVQSGAEVKKPGASVKVSCKASGYTFTSYYIHWVRQAPGQGLEWMGIINPSGGSTSYAQKFQGRVTMTRDTSTSTVYMELSSLRSEDTAVYYCARDVGQDYWFDLWGRGTLVTVSS VL: EIVMTQSPATLSVSPGERATLSCRASQSVSSNLAWYQQKPGQAPRLLIYSASTRATGIPARFSGSGSGTEFTLTISSLQSEDFAVYYCQQYDNFPFTFGGGTKVEIK | 20.2 |
| BIIB-9-440 (antibody, V domains shown) VH: QLQLQESGPGLVKPSETLSLTCTVSGGSISSSDYYWGWIRQPPGKGLEWIGSIYYSGSTYYNPSLKSRVTISVDTSKNQFSLKLSSVTAADTAVYYCARSPRHKVRGPNWFDPWGQGTLVTVSS VL: not shown | 39.9 |
| BIIB-9-1278 (antibody, V domains shown) VH: QVQLVQSGAEVKKPGASVKVSCKASGYTFTSYYMVWVRQAPGQGLEWMGIINPSGGSTSYAQKFQGRVTMTRDTSTSTVYMELSSLRSEDTAVYYCARGPGELGYYLAFDIWGQGTMVTVSS VL: EIVMTQSPATLSVSPGERATLSCRASQSVSSNLAWYQQKPGQAPRLLIYGASTRATGIPARFSGSGSGTEFTLTISSLQSEDFAVYYCQQHANFPPTFGGGTKVEIK | 66.2 |
| BIIB-9-883 (antibody, V domains shown) VH: QVQLVQSGAEVKKPGASVKVSCKASGYTFTSYYMHWVRQAPGQGLEWMGIINPSGGSTSYAQKFQGRVTMTRDTSTSTVYMELSSLRSEDTAVYYCARDGRLSYTWDRWGQGTLVTVSS VL: DIQMTQSPSSLSASVGDRVTITCQASQDITNYLNWYQQKPGKAPKLLIYDASNLETGVPSRFSGSGSGTDFTFTISSLQPEDIATYYCQQADHFPFTFGGGTKVEIK | 17.5 |
| BIIB-9-479 (antibody, V domains shown) VH: QVQLQESGPGLVKPSETLSLTCTVSGGSISSYYWSWIRQPPGKGLEWIGSIYYSGSTNYNPSLKSRVTISVDTSKNQFSLKLSSVTAADTAVYYCAREHYGDYPLFDIWGQGTMVTVSS VL: DIQMTQSPSTLSASVGDRVTITCRASQSISSWLAWYQQKPGKAPKLLIYKASSLESGVPSRFSGSGSGTEFTLTISSLQPDDFATYYCQQYRILSPTFGGGTKVEIK | 58.3 |
| BIIB-9-888 (antibody, V domains shown) VH: QVQLVQSGAEVKKPGASVKVSCKASGYTFTSYYMHWVRQAPGQGLEWMGIINPSGGSTSYAQKFQGRVTMTRDTSTSTVYMELSSLRSEDTAVYYCARGPTDSSGYLDMDVWGKGTTVTVSS VL: EIVMTQSPATLSVSPGERATLSCRASQSVSSNLAWYQQKPGQAPRLLIYGASTRATGIPARFSGSGSGTEFTLTISSLQPEDFAVYYCQQAFNWPPTFGGGTKVEIK | 65.6 |
| BIIB-9-611 (antibody, V domains shown) VH: QVQLVQSGAEVKKPGASVKVSCKASGYTFTSYYMHWVRQAPGQGLEWMGIINPSGGSTSYAQKFQGRVTMTRDTSTSTVYMELSSLRSEDTAVYYCAREVISRVSYFDLWGRGTLVTVSS VL: EIVMTQSPATLSVSPGERATLSCRASQSVSSNLAWYQQKPGQAPRLLIYGASTRATGIPARFSGSGSGTEFTLTISSLQSEDFAVYYCQQDNIHPYTFGGGTKVEIK | 18.6 |
| BIIB-9-1279 (antibody, V domains shown) VH: QVQLVQSGAEVKKPGASVKVSCKASGYTFTSYYMHWVRQAPGQGLEWMGIINPSGGSTSYAQKFQGRVTMTRDTSTSTVYMELSSLRSEDTAVYYCARGPTDSSGYLDMDVWGKGTTVTVSS VL: DIQMTQSPSSVSASVGDRVTITCRASQGISSWLAWYQQKPGKAPKLLIYAASSLQSGVPSRFSGSGSGTDFTLTISSLQPEDFATYYCQQASSFPPTFGGGTKVEIK | 40.9 |
| BIIB-9-592 (antibody, V domains shown) VH: QLQLQESGPGLVKPSETLSLTCTVSGGSISSNSYYWGWIRQPPGKGLEWIGSIYYSGSTYYNPSLKSRVTISVDTSKNQFSLKLSSVTAADTAVYYCARDSNYDSSGYALYYYGMDVWGQGTTVTVSS VL: not shown | 21.7 |

More lines, now with the values ahead:

| Kd [nM] | Binder |
| --- | --- |
| 15.6 | BIIB-9-439 (antibody, V domains shown) VH: QVQLVQSGAEVKKPGASVKVSCKASGYTFTSYYMHWVRQAPGQGLEWMGIINPSGGSTTYAQKFQGRVTMTRDTSTSTVYMELSSLRSEDTAVYYCAREATESYYYMDVWGKGTTVTVSS VL: EIVMTQSPATLSLSPGERATLSCRASQSVSSYLAWYQQKPGQAPRLLIYDSSNRATGIPARFSGSGSGTDFTLTISSLEPEDFAVYYCQQRDNWPFTFGGGTKVEIK |
| 6.1 | BIIB-9-887 (antibody, V domains shown) VH: QVQLVQSGAEVKKPGASVKVSCKASGYTFTSYYMVWVRQAPGQGLEWMGIINPSGGSTSYAQKFQGRVTMTRDTSTSTVYMELSSLRSEDTAVYYCARDAEAHWIPGMDVWGQGTTVTVSS VL: DIQMTQSPSSVSASVGDRVTITCRASQGISSWLAWYQQKPGKAPKLLIYAASSLQSGVPSRFSGSGSGTDFTLTISSLQPEDFATYYCQQASSFPFTFGGGTKVEIK |
| 16.7 | BIIB-9-621 (antibody, V domains shown) VH: QLQLQESGPGLVKPSETLSLTCTVSGGSISSSSYYWGWIRQPPGKGLEWIGSIYYSGSTYYNPSLKSRVTISVDTSKNQFSLKLSSVTAADTAVYYCARDGSISGSRFDYWGQGTLVTVSS VL: not shown |
| 15.6 | BIIB-9-1267 (antibody, V domains shown) VH: QVQLVQSGAEVKKPGASVKVSCKASGYTFTSYYMHWVRQAPGQGLEWMGIINPSGGSTSYAQKFQGRVTMTRDTSTSTVYMELSSLRSEDTAVYYCARDHGWAIYGMDVWGQGTTVTVSS VL: not shown |
| 14.9 | BIIB-9-1264 (antibody, V domains shown) VH: QVQLVQSGAEVKKPGASVKVSCKASGYTFTSYYMHWVRQAPGQGLEWMGIINPSGGSTSYAQKFQGRVTMTRDTSTSTVYMELSSLRSEDTAVYYCARDGDSSVYAFDYWGQGTLVTVSS VL: DIQMTQSPSSLSASVGDRVTITCQASQDITNYLNWYQQKPGKAPKLLIYDASNLETGVPSRFSGSGSGTDFTFTISSLQPEDIATYYCQQVDDYPFTFGGGTKVEIK |
| 8.63 | BIIB-9-605 (antibody, V domains shown) VH: not shown VL: DIQMTQSPSSVSASVGDRVTITCRASQGISSWLAWYQQKPGKAPKLLIYAASSLQSGVPSRFSGSGSGTDFTLTISSLQPEDFATYYCQQADVFPFTFGGGTKVEIK |
| 8.58 | BIIB-9-573 (antibody, V domains shown) VH: QLQLQESGPGLVKPSETLSLTCTVSGGSISSSSYYWGWIRQPPGKGLEWIGSIYYSGSTYYNPSLKSRVTISVDTSKNQFSLKLSSVTAADTAVYYCARESKTKGYLDLWGRGTLVTVSS VL: EIVLTQSPGTLSLSPGERATLSCRASQSVSSSFLAWYQQKPGQAPRLLIYGASSRATGIPDRFSGSGSGTDFTLTISRLEPEDFAVYYCQQSHSPPYTFGGGTKVEIK |
| 12.9 | BIIB-9-581 (antibody, V domains shown) VH: QVQLVQSGAEVKKPGASVKVSCKASGYTFTSYYMHWVRQAPGQGLEWMGIINPSGGSTSYAQKFQGRVTMTRDTSTSTVYMELSSLRSEDTAVYYCARDPLYYREGYVFDYWGQGTLVTVSS VL: DIQMTQSPSSLSASVGDRVTITCRASQSISSYLNWYQQKPGKAPKLLIYAASSLQSGVPSRFSGSGSGTDFTLTISSLQPEDFATYYCQQSDLFPFTFGGGTKVEIK |
| 7.05 | BIIB-9-569 (antibody, V domains shown) VH: QVQLVQSGAEVKKPGASVKVSCKASGYTFTSYYMHWVRQAPGQGLEWMGIINPSGGSTSYAQKFQGRVTMTRDTSTSTVYMELSSLRSEDTAVYYCARDGSGYSPYSFDPWGQGTLVTVSS VL: DIQMTQSPSSLSASVGDRVTITCQASQDISNYLNWYQQKPGKAPKLLIYDASNLATGVPSRFSGSGSGTDFTFTISSLQPEDIATYYCQQADDFPFTFGGGTKVEIK |
| 6.57 | BIIB-9-607 (antibody, V domains shown) VH: QLQLQESGPGLVKPSETLSLTCTVSGGSISSSSYYWGWIRQPPGKGLEWIGSISYSGSTYYNPSLKSRVTISVDTSKNQFSLKLSSVTAADTAVYYCARDRGYSYEDFDLWGRGTLVTVS VL: DIQMTQSPSTLSASVGDRVTITCRASQSISSWLAWYQQKPGKAPKLLIYKASSLESGVPSRFSGSGSGTEFTLTISSLQPDDFATYYCQQAGRYPLTFGGGTKVEIK |
| 11.8 | BIIB-9-587 (antibody, V domains shown) VH: QVQLVQSGAEVKKPGASVKVSCKASGYTFTSYYMHWVRQAPGQGLEWMGIINPSGGSTSYAQKFQGRVTMTRDTSTSTVYMELSSLRSEDTAVYYCARGPPGYEYYMDVWGKGTTVTVSS VL: DIQMTQSPSSVSASVGDRVTITCRASQGISSWLAWYQQKPGKAPKLLIYAASSLQSGVPSRFSGSGSGTDFTLTISSLQPEDFATYYCQQADSFPFTFGGGTKVEIK |
| 7.51 | BIIB-9-480 (antibody, V domains shown) VH: QVQLQESGPGLVKPSETLSLTCAVSGYSISSGYYWGWIRQPPGKGLEWIGSSYHSGSTYYNPSLKSRVTISVDTSKNQFSLKLSSVTAADTAVYYCARDQQDYGAFDIWGQGTMVTVSS VL: not shown |
| 0.804 | BIIB-9-885 (antibody, V domains shown) VH: QVQLVQSGAEVKKPGASVKVSCKASGYTFTSYYMHWVRQAPGQGLEWMGIINPSGGSTSYAQKFQGRVTMTRDTSTSTVYMELSSLRSEDTAVYYCAREGPMLDYPTYSNWFDPWGQGTLVTVSS VL: EIVLTQSPATLSLSPGERATLSCRASQSVSSYLAWYQQKPGQAPRLLIYDASKRATGIPARFSGSGSGTDFTLTISSLEPEDFAVYYCQQRVIWPPTFGGGTKVEIK |
